Measured values reported in publication PMC12718013.

Target: purified human vitronectin (Invitrogen) (UniProt P04004)
Experiment: ELISA
Settings: 20 nM Vn, read off a plot

Sequence of UniProt P04004 (P04004 whole entry, looked up): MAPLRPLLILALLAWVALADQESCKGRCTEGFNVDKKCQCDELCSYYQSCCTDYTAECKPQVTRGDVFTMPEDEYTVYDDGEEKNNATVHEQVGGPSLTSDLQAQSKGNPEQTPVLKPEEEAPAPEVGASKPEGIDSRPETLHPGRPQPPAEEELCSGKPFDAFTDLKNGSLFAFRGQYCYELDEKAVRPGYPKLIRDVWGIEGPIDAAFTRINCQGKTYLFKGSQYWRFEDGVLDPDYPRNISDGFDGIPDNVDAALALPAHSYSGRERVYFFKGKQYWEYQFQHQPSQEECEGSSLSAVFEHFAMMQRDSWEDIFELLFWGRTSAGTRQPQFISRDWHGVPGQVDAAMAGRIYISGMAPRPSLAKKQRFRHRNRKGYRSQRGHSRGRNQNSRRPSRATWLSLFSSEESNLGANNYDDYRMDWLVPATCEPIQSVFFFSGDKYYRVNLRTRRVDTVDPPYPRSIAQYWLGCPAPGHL

Question: For “synthetic peptide of loop 2 of P5 from NTHi P652 V3A; F5A; L7A”, which response (absorbance at 450 nm) (parent: est. 0.97) is on record?
Answer: 0.45

Question: How did the response (absorbance at 450 nm) (parent: est. 0.28) turn out when “synthetic peptide of loop 2 of P5 from NTHi 3655 L5A; V8A; S12A” was run?
Answer: 0.13

Question: Which response (absorbance at 450 nm) (parent: est. 0.23) does the source give for “synthetic peptide of loop 2 of P5 from NTHi KR317 L5A; V8A; Q10A; T11A; R12A” here?
Answer: 0.095

Question: How did the response (absorbance at 450 nm) (parent: est. 0.12) turn out when “synthetic peptide of loop 2 of P5 from NTHi KR271 I5A” was run?
Answer: 0.1
